Results from the RNAGym collection of RNA variant scans (doi:10.1093/molbev/msab373).

B1: Azoarcus group I ribozyme (parent)
chain: GUGCCUUGCGCCGGGAAACCACGCAAGGGAUGGUGUCAAAUUCGGCGAAACCUAAGCGCCCGCCCGGGCGUAUGGCAACGCCGAGCCAAGCUUCGGCGCCUGCGCCGAUGAAGGUGUAGAGACUAGACGGCACCCACCUAAGGCAAACGCUAUGGUGAAGGCAUAGUCCAGGGAGUGGCGAAAGUCACACAAACCGG

Variants of: B1
Test: reverse-splicing fitness (ratio to wild type); higher = more active; in vitro selection; Mg2+ level not given
In short: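 An in vitro group I ribozyme library with randomized positions was T7-transcribed and gel-purified. In triplicate, 10 pmol RNA in EPPS pH 7.5 was reacted with 50 pmoles of a 30-nt RNA substrate for 1 h at 37 °C across several added MgCl2 levels (1–48 mM), then stopped with EDTA. Products were reverse transcribed from a substrate-complementary primer, PCR-amplified and sequenced (HiSeq 4000). Fitness is a variant's read proportion after selection over that before, normalised to wild type.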

Variant | reverse-splicing fitness
A111G A120G A145G U176G | 0.00937
A111G A120G A145G U176A | 0.0808
A111G A120G A145G U176C | 0.12
A111G A120G A145G C150U C169A U176G | 0.00612
A111G A120G A145G C150U C169A U176C | 0.0553
A111G A120G A145G C150U C169A U176A | 0.0303
A111G A120G A145G C150U C169U U176C | 0.0831
A111G A120G A145G C150U C169U U176A | 0.0625
A111G A120G A145G C150U C169U U176G | 0.00628
A111G A120C C150U | 0.528
A111G A120C C150G | 0.0783
A111G A120C C150A | 0.124
A111G A120G A145G C169A U176A | 0.0489
A111G A120G A145G C169A U176C | 0.0746
A111G A120G A145G C169A U176G | 0.00474
A111G A120G A145C C150U | 0.0745
A111G A120G A145C C150A | 0.0175
A111G A120G A145C C150G | 0.036
A111G A120G A145C C150A C169U U176A | 0.0233
A111G A120G A145C C150A C169U U176C | 0.0129
A111G A120G A145C C150A C169U U176G | 0.00508
A111G A120C C169G U176C | 0.0183
A111G A120C C169G U176A | 0.0158
A111G A120C C169G U176G | 0.00351

Variant | reverse-splicing fitness
A111G A120C C150A C169A U176C | 0.0167
A111G A120C C150A C169A U176A | 0.0158
A111G A120C C150A C169A U176G | 0.00468
A111G A120C A145U C150U C169G U176A | 0.014
A111G A120C A145U C150U C169G U176G | 0.00446
A111G A120C A145U C150U C169G U176C | 0.0106
A111G A120C C150G C169G U176A | 0.00631
A111G A120C C150G C169G U176G | 0.00385
A111G A120C C150G C169G U176C | 0.00358
A111G A120C U176C | 0.522
A111G A120C U176G | 0.125
A111G A120C U176A | 0.47
A111G A120C A145U C169A U176A | 0.00811
A111G A120C A145U C169A U176G | 0.00333
A111G A120C A145U C169A U176C | 0.0103
A111G A120C A145U U176A | 0.482
A111G A120C A145U U176C | 0.45
A111G A120C A145U U176G | 0.172
A111G A120G A145C C169A U176G | 0.00382
A111G A120G A145C C169A U176C | 0.0567
A111G A120G A145C C169A U176A | 0.0345
A111G A120G A145U C150G C169G U176A | 0.00768
A111G A120G A145U C150G C169G U176C | 0.00471
A111G A120G A145U C150G C169G U176G | 0.00457

Variant | reverse-splicing fitness
A111G A120G A145C C150U U176C | 0.038
A111G A120G A145C C150U U176G | 0.00705
A111G A120G A145C C150U U176A | 0.0317
A111G A120G A145U C150U C169G U176C | 0.0783
A111G A120G A145U C150U C169G U176G | 0.00556
A111G A120G A145U C150U C169G U176A | 0.0574
A111G A120G A145C C150A C169G U176C | 0.0168
A111G A120G A145C C150A C169G U176A | 0.0264
A111G A120G A145C C150A C169G U176G | 0.00542
A111G A120C A145U C150A C169G | 0.00748
A111G A120C A145U C150A C169U | 0.033
A111G A120C A145U C150A C169A | 0.00758
A111G A120C C169U | 0.271
A111G A120C C169G | 0.0129
A111G A120C C169A | 0.0146
A111G A120G A145C | 0.266
A111G A120G A145G | 0.285
A111G A120G A145U | 0.274
A111G A120G A145C C150G C169U U176C | 0.0162
A111G A120G A145C C150G C169U U176G | 0.00502
A111G A120G A145C C150G C169U U176A | 0.0176
A111G A120G A145G C150G C169G | 0.0306
A111G A120G A145G C150G C169A | 0.0213
A111G A120G A145G C150G C169U | 0.0343

Variant | reverse-splicing fitness
A111G A120G A145C C150U C169A | 0.0431
A111G A120G A145C C150U C169U | 0.0714
A111G A120G A145C C150U C169G | 0.088
A111G A120G A145U C150A C169G U176G | 0.00424
A111G A120G A145U C150A C169G U176A | 0.0201
A111G A120G A145U C150A C169G U176C | 0.0243
A111G A120G A145G C150U C169G U176C | 0.078
A111G A120G A145G C150U C169G U176A | 0.0549
A111G A120G A145G C150U C169G U176G | 0.00563
A111G A120C A145U C150G C169U U176C | 0.0159
A111G A120C A145U C150G C169U U176G | 0.00422
A111G A120C A145U C150G C169U U176A | 0.0072
A111G A120C A145U C169G U176A | 0.00894
A111G A120C A145U C169G U176G | 0.0045
A111G A120C A145U C169G U176C | 0.00882
A111G A120C C150U U176A | 0.314
A111G A120C C150U U176G | 0.0682
A111G A120C C150U U176C | 0.337
A111G A120C C150U C169U U176C | 0.0445
A111G A120C C150U C169U U176A | 0.0417
A111G A120C C150U C169U U176G | 0.00603
A111G A120C A145U C150G C169G U176G | 0.00416
A111G A120C A145U C150G C169G U176A | 0.00655
A111G A120C A145U C150G C169G U176C | 0.00451

Variant | reverse-splicing fitness
A111G A120G A145U C150G C169A U176C | 0.0123
A111G A120G A145U C150G C169A U176A | 0.0101
A111G A120G A145U C150G C169A U176G | 0.00435
A111G A120G A145G C150A C169U U176C | 0.0305
A111G A120G A145G C150A C169U U176A | 0.0309
A111G A120G A145G C150A C169U U176G | 0.00605
A111G A120G A145U C150U C169U U176G | 0.00675
A111G A120G A145U C150U C169U U176A | 0.0647
A111G A120G A145U C150U C169U U176C | 0.0675
A111G A120G A145C C150A C169A U176C | 0.00695
A111G A120G A145C C150A C169A U176G | 0.00399
A111G A120G A145C C150A C169A U176A | 0.0135
A111G A120C A145U C150A U176C | 0.0741
A111G A120C A145U C150A U176A | 0.0685
A111G A120C A145U C150A U176G | 0.024
A111G A120G A145G C150U U176A | 0.0693
A111G A120G A145G C150U U176G | 0.00986
A111G A120G A145G C150U U176C | 0.0905
A111G A120G A145U C150U C169A U176G | 0.00532
A111G A120G A145U C150U C169A U176A | 0.0314
A111G A120G A145U C150U C169A U176C | 0.0426
A111G A120C A145U C169G | 0.0128
A111G A120C A145U C169A | 0.0133
A111G A120C A145U C169U | 0.262

Variant | reverse-splicing fitness
A111G A120G A145U C150A C169A U176A | 0.0157
A111G A120G A145U C150A C169A U176G | 0.00504
A111G A120G A145U C150A C169A U176C | 0.015
A111G A120G A145U C169U U176C | 0.093
A111G A120G A145U C169U U176G | 0.0103
A111G A120G A145U C169U U176A | 0.0839
A111G A120G A145C C150G C169A | 0.0226
A111G A120G A145C C150G C169G | 0.0368
A111G A120G A145C C150G C169U | 0.0356
A111G A120C C150U C169A U176C | 0.012
A111G A120C C150U C169A U176G | 0.00384
A111G A120C C150U C169A U176A | 0.0182
A111G A120G A145C C150A C169A | 0.0124
A111G A120G A145C C150A C169G | 0.0196
A111G A120G A145C C150A C169U | 0.0192
A111G A120G A145C C150G C169G U176A | 0.0101
A111G A120G A145C C150G C169G U176G | 0.00389
A111G A120G A145C C150G C169G U176C | 0.00653
A111G A120G A145C C150U C169U U176A | 0.0353
A111G A120G A145C C150U C169U U176G | 0.00645
A111G A120G A145C C150U C169U U176C | 0.0306
A111G A120C A145U C169U U176C | 0.0719
A111G A120C A145U C169U U176A | 0.0589
A111G A120C A145U C169U U176G | 0.00772

Variant | reverse-splicing fitness
A111G A120C A145U | 0.745
A111G A120G A145U C150U C169A | 0.114
A111G A120G A145U C150U C169U | 0.157
A111G A120G A145U C150U C169G | 0.206
A111G A120C A145G C169U U176C | 0.0832
A111G A120C A145G C169U U176G | 0.00613
A111G A120C A145G C169U U176A | 0.064
A111G A120G A145C C169A | 0.158
A111G A120G A145C C169G | 0.3
A111G A120G A145C C169U | 0.219
A111G A120G A145U C169G U176G | 0.00712
A111G A120G A145U C169G U176A | 0.0761
A111G A120G A145U C169G U176C | 0.106
A111G A120C A145G C169A U176C | 0.0197
A111G A120C A145G C169A U176A | 0.0173
A111G A120C A145G C169A U176G | 0.00366
A111G A120G A145U C169U | 0.232
A111G A120G A145U C169G | 0.33
A111G A120G A145U C169A | 0.174
A111G A120G A145U C150U U176C | 0.0782
A111G A120G A145U C150U U176A | 0.0608
A111G A120G A145U C150U U176G | 0.00788
A111G A120G A145G C169U U176G | 0.00896
